Measurements as given in PMC6666309.

Tests used:
pro-cathepsin D [1] = target: pro-cathepsin D (UniProt P07339)
pro-cathepsin D [2] = target: pro-cathepsin D (UniProt P07339); assay: MST
pro-cathepsin D [3] = target: pro-cathepsin D (UniProt P07339); remark: listed apart in the source

Chain of pro-cathepsin D (P07339 21-412): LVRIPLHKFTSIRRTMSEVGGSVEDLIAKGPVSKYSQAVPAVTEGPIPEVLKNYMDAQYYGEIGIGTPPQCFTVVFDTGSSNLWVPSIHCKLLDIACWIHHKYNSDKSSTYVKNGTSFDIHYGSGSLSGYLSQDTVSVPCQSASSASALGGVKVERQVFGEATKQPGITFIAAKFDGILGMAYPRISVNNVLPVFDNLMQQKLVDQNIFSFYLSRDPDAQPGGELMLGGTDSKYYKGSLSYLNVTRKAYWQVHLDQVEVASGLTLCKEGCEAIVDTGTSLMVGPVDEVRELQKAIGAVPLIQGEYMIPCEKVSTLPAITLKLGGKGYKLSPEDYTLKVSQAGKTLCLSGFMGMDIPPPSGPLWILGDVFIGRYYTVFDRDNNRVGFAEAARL

| DSF - ΔTm of proCTSD (1 μM proCTSD with 2 μM peptide BAC, pH 7.4) (pro-cathepsin D [1]) | Normalized Vmax of CTSD activity (20 nM proCTSD, 65 nM peptide BAC, pH 3.5) (pro-cathepsin D [1]) | Kd (pro-cathepsin D [2]) | DSF - ΔTm of proCTSD with peptide CDE, pH 7.4 (pro-cathepsin D [1]) | Normalized Vmax of CTSD activity (20 nM proCTSD, 65 nM peptide CDE, pH 3.5) (pro-cathepsin D [1]) | DSF - Tm reduction of proCTSD with CDE at a 1:1 molar ratio (pro-cathepsin D [3]) | Substance |
| --- | --- | --- | --- | --- | --- | --- |
| -3.38 °C | 1.89 | 2800 nM |  |  |  | multi-granulin domain peptide BAC (domain or fragment) |
|  |  | 130 nM | -2.78 °C | 1.84 | 2.75 °C | multi-granulin domain peptide CDE (domain or fragment) |
